Measured values published in patent publication US20240270859A1 (HK INNO N, published 2024).
Where two headings read alike, the source gives them in different places.

T1: human OX40L protein (OX40L-his), Acro Biosystems Cat #OXL-H52Q8 (human, UniProt P23510 51-183)
T1 sequence: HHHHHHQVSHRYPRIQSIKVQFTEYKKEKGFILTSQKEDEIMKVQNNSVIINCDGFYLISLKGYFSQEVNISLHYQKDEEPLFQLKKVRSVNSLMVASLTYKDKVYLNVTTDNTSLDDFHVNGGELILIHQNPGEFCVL


How the values were obtained:
[1] = biological target: T1, human OX40L protein (OX40L-his), Acro …; assay: cell-based or functional assay
[2] = biological target: T1, human OX40L protein (OX40L-his), Acro …; assay: SPR (Biacore T200), antibody captured by anti-hFc on CM5 chip, antigen as analyte
Method: A surface plasmon resonance (SPR) analysis was performed by using Bicore T200, and a running buffer used was HBS-EP (10 mM HEPES, pH7.4, 150 mM NaCl, 3 mM EDTA, […] surfactant P20). A human antibody capture kit (anti-hFc antibody) was fixed onto a surface of CM5 chip through an amine coupling method. […] An analytical sample was prepared with high purity/high concentration so that the minimum dilution factor could be 100 or more, thereby minimizing a buffer effect.

[3] = biological target: human TNFα (TNF-H5228 of Acro Biosystems) (human, UniProt P01375 77-233); assay: cell-based or functional assay
[4] = biological target: T1, human OX40L protein (OX40L-his), Acro …; assay: cell-based or functional assay; remark: listed apart in the source

human TNFα (TNF-H5228 of Acro Biosystems), sequence (P01375 77-233 limits assumed): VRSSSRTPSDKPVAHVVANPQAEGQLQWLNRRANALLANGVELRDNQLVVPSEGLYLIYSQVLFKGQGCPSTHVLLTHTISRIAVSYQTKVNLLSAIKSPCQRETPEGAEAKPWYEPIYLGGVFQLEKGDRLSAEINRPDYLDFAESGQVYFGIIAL

IC50 (nM), OX40L blockade assay (luminescence of NFκB-luc2/OX40 Jurkat cells) [1] [nM] | IC50(µg/mL), OX40L blockade assay (luminescence of NFκB-luc2/OX40 Jurkat cells) [1] [µg/mL] | Kd [2] [pM] | koff [2] [s⁻¹] | kon [2] [M⁻¹ s⁻¹] | IC50 (nM), TNFα blockade assay (luminescence of NFκB-RE HEK293 cells) [3] [nM] | IC50 (nM), OX40L blockade assay (luminescence of NFκB-luc2/OX40 Jurkat cells) [4] [nM] | Binder
0.2 | 0.03 | 282 | 0.000357 | 1.27e+06 | – | – | anti-OX40L antibody Hu3F07 (antibody, human IgG4 S228P, kappa, V domains shown, Humanized; IgG4 S228P / kappa) VH: QVQLVQSGAEVKKPGASVKVSCKASGFTFPDYWMHWVRQAPGQGLEWMGEIDPPNGRTNYNEKFKSRVTMTRDTSISTAYMELSRLRSDDTAVYYCARGIYYVDYWGQGTTVTVSS VL: DIVMTQSPLSLPVTLGEPASISCRSSQSLVHSNGNTYLHWYLQKPGQSPQLLIYKVSNRFSGVPDRFSGSGSGTDFTLKISRVEAEDVGVYYCSQSTHVPPTFGGGTKLEIKR
0.41 | 0.061 | 295 | 0.000498 | 1.69e+06 | – | – | anti-OX40L antibody 10H07 (antibody, human IgG4 S228P, kappa, V domains shown, Chimeric; IgG4 S228P / kappa) VH: QVYLQQSGAELVKPGASVKLSCKASGYTFTDYWMHWVKQRPGQGLEWIGEIDPGNGRTNYNEKFKNKATLSVDKSSNTAYMQFSSLTSEDSAVFYCASEGAGRGFPYWGQGTLVTVSA VL: DVVLTQTPLSLPVSLGDQASISCRSSQSLVHSNGNTYLHWYLQKPGQSPKLLIYKVSNRFSGVPDRFSGSGSGTDFTLKISRVEAEDLGVYFCSQSTHVPWTFGGGTKLEIKR
0.85 | 0.128 | 603 | 0.00065 | 1.08e+06 | – | – | anti-OX40L antibody 21G07 (antibody, human IgG4 S228P, kappa, V domains shown, Chimeric; IgG4 S228P / kappa) VH: QVQLQQSGAELVKPGASVKLSCKASGYTFTNYWMQWVKQRPGQGLEWIGEIDPSDGRTNYNEKFKNKATLTVDRSSSTAYIKLSSLTSEDSAVYYCAREVSLRSMDYWGQGTSVTVSS VL: DIVLTQSPLSLPVSLGDQASISCRSSQSLVHSNGNTYLHWYLQKPGQSPKLLIYKVSNRFSGVPDRFSGSGSGTDFTLKISRVEAEDLGVYFCSQSTHVPFTFGSGTKLEIKR
0.59 | 0.117 | 472 | – | – | – | – | bispecific antibody 02C09-TNFαi HC (bispecific antibody) heavy: not shown light: DIQMTQSPSSLSASLGDRVTITCRASQSIGRWLAWYQQKPGNAPKLLIYKATILESGVPSRFSGSGSGTEFALTISSLQPDDFSAYYCQQYNSYPYTFGQGTKLEIKRTVAAPSVFIFPPSDEQLKSGTASVVCLLNNFYPREAKVQWKVDNALQSGNSQESVTEQDSKDSTYSLSSTLTLSKADYEKHKVYACEVTHQGLSSPVTKSFNRGEC
0.21 | 0.041 | 450 | – | – | – | – | bispecific antibody Hu3F07-TNFαi HC (bispecific antibody) heavy: not shown light: DIVMTQSPLSLPVTLGEPASISCRSSQSLVHSNGNTYLHWYLQKPGQSPQLLIYKVSNRFSGVPDRFSGSGSGTDFTLKISRVEAEDVGVYYCSQSTHVPPTFGGGTKLEIKRTVAAPSVFIFPPSDEQLKSGTASVVCLLNNFYPREAKVQWKVDNALQSGNSQESVTEQDSKDSTYSLSSTLTLSKADYEKHKVYACEVTHQGLSSPVTKSFNRGEC
– | – | – | – | – | 0.055 | 0.91 | bispecific antibody I3F07-TNFαi HC (bispecific antibody) heavy: not shown light: DIVLTQSPLSLPVSLGDQASISCRSSQSLVHSNGNTYLHWYLQKPGQSPKLLIYKVSNRFSGVPDRFSGSGSGTDFTLKISRVEAEDLGVYFCSQSTHVPPTFGGGSKLEIKRTVAAPSVFIFPPSDEQLKSGTASVVCLLNNFYPREAKVQWKVDNALQSGNSQESVTEQDSKDSTYSLSSTLTLSKADYEKHKVYACEVTHQGLSSPVTKSFNRGEC
1.95 | 0.293 | – | – | – | – | – | reference anti-OX40L antibody O4L (VH and VL of oxelumab) (antibody, human IgG4 S228P, kappa, V domains shown) VH: EVQLLESGGGLVQPGGSLRLSCAASGFTFNSYAMSWVRQAPGKGLEWVSIISGSGGFTYYADSVKGRFTISRDNSRTTLYLQMNSLRAEDTAVYYCAKDRLVAPGTFDYWGQGALVTVSS VL: DIQMTQSPSSLSASVGDRVTITCRASQGISSWLAWYQQKPEKAPKSLIYAASSLQSGVPSRFSGSGSGTDFTLTISSLQPEDFATYYCQQYNSYPYTFGQGTKLEIKR
